Reference: the supplement of paper PMC9170038

System: MS2 coat protein
Assay: apparent KD of MS2 coat protein; designed switch direction (-1 OFF switch, 1 ON switch): 1; higher = weaker reporter binding
Procedure, shortened: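 Designed RNA switches were transcribed on Illumina chips by stalled E. coli RNA polymerase and titrated with SNAP-549-labelled MS2 coat protein from 0.7 or 1.5 nM, doubling to 3 µM. Step length ran from 0.8–1.5 h at the lowest concentration to 10–20 min at the highest. The apparent KD is the median over clusters for each design, from curve-fitted normalised cluster fluorescence.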

[1] = input ligand: microRNA oligo, concentration not stated
[2] = Eterna round: R95, input ligand: microRNA oligo, concentration not stated
[3] = Eterna round: R95, input ligand: FMN 200 uM
[4] = Eterna round: R95, input ligand: none

Row | Sequence | apparent KD of MS2 coat protein (input ligand: FMN 200 uM) [nM] | apparent KD of MS2 coat protein [1] [nM] | apparent KD of MS2 coat protein (input ligand: none) [nM] | apparent KD of MS2 coat protein [2] [nM] | apparent KD of MS2 coat protein [3] [nM] | apparent KD of MS2 coat protein [4] [nM]
1 | AAAAUGGGAUUUUACAUGAGGAUCACCCAUGUGGGUAUCACUGAGGAUAUGAGGAUCUUGAAAAAUCAGAAGGCAGAAUUUCAA [AK SSNG3-V2-21] (Eterna round: R96, puzzle: Same State NG 3) | 410 | 288 | 329 |  |  | 
2 | AUUAAUAAUCGAGGAUAUCACGUCGAUUAGACGUGAGAAGGCGAUCAUAACAUGAGGAUCACCCAUGUAUUACAUGAAGUUAAU [SSNG1/4-B2] (Eterna round: R96, puzzle: Same State NG 1) | 25.3 | 23.7 | 28.2 |  |  | 
3 | GGAGAACAUGAGGAUCACCCAUGUGGAUGGGCGCUAGGAUAUGCGGGAGGGUGAAGAGAAGCAGAAGGAGUGGAUA [JR_SS1_Sub035] (puzzle: Same State 1) |  |  |  | 56.7 |  | 
4 | GGUGGGUUACUACCCACACAUGAGGAUCACCCAUGUUUUGGGAAGGAUAUGGUACCUAUUUGGUACCAGAAGGUCCUGUUGGUG [SS-NG3-LRO14] (Eterna round: R96, puzzle: Same State NG 3) | 702 | 445 | 1020 |  |  | 
5 | AGAUCAUGACGAGGAUAUGCCACAUGAGGAUCACCCAUGUAUGUGGUAGGACGCGUACGUCCAAAGCAGAAGGCGUCGUGAUCA [Mat - Same State NG 2 - JL mod - D36] (Eterna round: R96, puzzle: Same State NG 2) | 21.5 | 37.6 | 47.9 |  |  | 
6 | GCUCGACUGAUGGCCUACAUGAGGAUCACCCAUGUGAUUGGGCAGGAUAUCUAGAUGCAGGAUGUAGAGAAGGGCCUGUCGAGC [SameState NG3 #44] (Eterna round: R96, puzzle: Same State NG 3) | 1170 | 194 | 349 |  |  | 
7 | GCGCUACAUGAGGAUCACCCAUGUGCGAACGCACGAGGAUAUGCAUGGGCUAAUGCUGGUGCAGAAGGCGUGGCGC [Pin2Pin #8] (puzzle: Same State 1) |  |  |  | 23.8 |  | 
8 | GCAAAGGCGGUAGGAUAUCUAGGAUAUGGGAAAGACUAAGUCUGUAGGUCACCUAACCCAGAAGGAGAGAAGGACACCGAAAGG [pwkr ssNG2 2FMN + F9.25] (Eterna round: R96, puzzle: Same State NG 2) | 617 | 9.18 | 73.7 |  |  | 
9 | GCUACAUGAGGAUCACCCAUGUGUGCGUGGGAGUGAGUGGCUUAGGAUAUCUAUGAUUUUAGUUGAGAGAAGGAGGAUUGCUGU [SS-NG3-LRO10] (Eterna round: R96, puzzle: Same State NG 3) | 193 | 140 | 175 |  |  | 
10 | GCUCGUAUCACAACCGACAUGAGGAUCACCCAUGUAUGUUGGUAGGAUAUCUAUAUUAAGGAUAUAGAGAAGGGCCGAACGAGC [SameState NG3 #13] (Eterna round: R96, puzzle: Same State NG 3) | 14.6 | 10.4 | 18.7 |  |  | 
11 | UGUUGUAUUACAGGAUAUCUAUUAGUGUUAUUUAGAGAAGGGUAUUCACAUGAGGAUCACCCAUGUAUAUACGAGGAAGUUGUG [JMF's solution 90] (Eterna round: R96, puzzle: Same State NG 1) | 65.1 | 37.4 | 57.4 |  |  | 
12 | GCGAGCGUACUUGCUACAUGAGGAUCACCCAUGUUCGUUGGACAGGAUAUGGUACCGUUUCGGUACCAGAAGGGUUCACAUGUA [JL SSNG3 3.77] (Eterna round: R96, puzzle: Same State NG 3) | 171 | 224 | 375 |  |  | 
13 | GCUACCAAAGAAGCCUACAUGAGGAUCACCCAUGUAUGUAGGCAGGAUAUCGAUUGCAAAGCGAUCGAGAAGGGCUUAGGUAGC [Mat - Same State NG 3 - JL Mod - D92] (Eterna round: R96, puzzle: Same State NG 3) | 68.9 | 116 | 152 |  |  | 
14 | AAAGUGCCGACGAAGGAUAUAGCGGGUGAGACAUGAGGAUCACCCAUGUAUGCAGAACUCAUCCUCUAGAAGGUUGAGACGGCUA [Bionlateat] (Eterna round: R96, puzzle: Same State 2) | 151 | 31.1 | 95.9 |  |  | 
15 | UUAUUAUUUACAUGAGGAUCACCCAUGUUUUUAUGUCAGAGAUAGGAUAUAGUAGUCUCGUUUUACUAGAAGGAUCUUUUUAUU [JR_SSNG3_Sub084] (Eterna round: R96, puzzle: Same State NG 3) | 13.4 | 15.8 | 19.9 |  |  | 
16 | UAUGAAUUACAAGGAUAUUAAUAACAUGAGGAUCACCCAUGUGGCUGUGAGAGUUAGAUAAGCUAUAAGAAGGUGUGUGUGUUU [JR_SSNG2_Sub093] (Eterna round: R96, puzzle: Same State NG 2) | 93.1 | 196 | 267 |  |  | 
17 | AAGUAACAUGAGGAUCACCCAUGUGAGGUGAGCGUAGGAUAUCGAGGAGGAAGGGUGGAGCGAGAAGGACGAGAGG [JR_SS1_Sub099] (Eterna round: R96, puzzle: Same State 1) | 544 | 281 | 386 |  |  | 
18 | GGUAAACAUGAGGAUCACCCAUGUAAUAUAAUGGGAGGAUAUCUGAAUUAAUUAAAUUAAGGAGAAGGCCUAAUGG [Mat - Same State 1 - Mod of Eli - D49] (puzzle: Same State 1) |  |  |  | 245 | 248 | 321
19 | CUUUCUCUUGCAGGAUAUCCUAGUCUUCGGUUAGGAGAAGGGCAAGGAAACUUGCUAAGCAAGUCUGUAACAGAGAUCCUUCCU [pwkr ssNG1 F9.2] (Eterna round: R96, puzzle: Same State NG 1) | 124 | 78.2 | 164 |  |  | 
20 | AUUUUUGAUGCAGGAUAUGAUUAACAUGAGGAUCACCCAUGUGGUGUUGUGAGUAAGGAGAGUGAUCAGAAGGGCAUUUUUUUU [JMF's solution 93] (Eterna round: R96, puzzle: Same State NG 2) | 810 | 269 | 365 |  |  | 
21 | GGUGCCAAUAAAGCCUACAUGAGGAUCACCCAUGUAUGUAGGUAGGAUAUCGUUUGCAAAGCAAACGAGAAGGGCCUAGGCACC [Mat - Same State NG 3 - JL Mod - D58] (Eterna round: R96, puzzle: Same State NG 3) | 27 | 43.7 | 53.1 |  |  | 
22 | UGGUACAUGGGAGGAUAUCUCGUGGAGACAUGAGGAUCACCCAUGUAGAUGGCCGGUAACCGGAGAGAGAAGGCCCAUGUACCU [JL SSNG1 3.68] (Eterna round: R96, puzzle: Same State NG 2) | 66.9 | 65.4 | 159 |  |  | 
23 | AGUCCACCCUGAGGUGGACAAAAGCAUGUACAUGAGGAUCACCCAUGUCAUGUACAAGCUUUUUGCUCGUCUUAAUA [Mat - hsa-mir-208a - Mod of JL - D42] (puzzle: Sensor for hsa-mir-208a) |  |  |  | 17.9 | 589 | 734
24 | AAGUAACAUGAGGAUCACCCAUGUGAGGUGAGCGUAGGAUAUCGAGGAGGUAGGGUAGGUCGAGAAGGACGAGAAG [JR_SS1_Sub095] (puzzle: Same State 1) |  |  |  | 210 | 323 | 700
25 | AGUCCAGCAAGAGCUGGACAAAAGCAUGUACAUGAGGAUCACCCAUGUUCAUGUACAAGCUUUUUGCUCGUCUUAAA [Mat - hsa-mir-208a - Mod of JL - 57] (puzzle: Sensor for hsa-mir-208a) |  |  |  | 16.5 | 413 | 659
26 | GGGUAGGAAUUACAGGAUAUAUAGAAGUUGACAUGAGGAUCACCCAUGUAUGGGUUGGGAGGAGGAUAGAAGGGUAUGAGAGGUG [JR_SS2_Sub032] (puzzle: Same State 2) |  |  |  | 123 | 125 | 113
27 | CCGGUGAUAGGGCAGGAUAUGACUGUCGUCACAUGAGGAUCACCCAUGUCCCGGCAAUGCCACCGUUAGAAGGGCCCUAUCCCGA [Teuszaesti] (puzzle: Same State 2) |  |  |  | 12.1 | 14.8 | 15
28 | AGAUCAUGACGAGGAUAUCCGACAUGAGGAUCACCCAUGUAUGUCGGAGGACGGAAACGUCCAAAGGAGAAGGCGUCGUGGUCA [Mat - Same State NG 2 - JL mod - D37] (Eterna round: R96, puzzle: Same State NG 2) | 17.7 | 72.4 | 85.3 |  |  | 
29 | GUAGUACAUGAGGAUCACCCAUGUUUCCUCCAAGAGUUCUUCGAGGAUAUGUCAUGGAAUCCACAAUAGAAGGCGGAGAACCAA [Eternabot solution 39] (Eterna round: R96, puzzle: Same State NG 3) | 403 | 526 | 462 |  |  | 
30 | GGGUAGGAGCUACAGGAUAUAUAGAAGUUGACAUGAGGAUCACCCAUGUAAGGGUACGGAGGCGGAUAGAAGGGUAUGGGAGGUG [JR_SS2_Sub033] (puzzle: Same State 2) |  |  |  | 54.2 | 55.5 | 64.9
